Biological target: GbnD4 DHD domain (Burkholderia gladioli BCC0238)
Assay: NMR titration

GbnD5 apo-DH-ACP di-domain (domain or fragment)
average apparent KD of the Val19-Glu30 and Ala49-Arg60 regions: 7 to 15 µM
